Experimental data as given in patent publication US20100292444A1 (published 2010).
Residue numbers refer to the chain shown, from its start. In names and notes the source's numbering stands. Blank lines part the entries; values can stand above or below the binder they belong to.

Target: T1, Ser-PRLR (1-210) (UniProt P16471 25-234)
T1 construct: range 1-210; also called PRL receptor; prolactin receptor
T1 sequence: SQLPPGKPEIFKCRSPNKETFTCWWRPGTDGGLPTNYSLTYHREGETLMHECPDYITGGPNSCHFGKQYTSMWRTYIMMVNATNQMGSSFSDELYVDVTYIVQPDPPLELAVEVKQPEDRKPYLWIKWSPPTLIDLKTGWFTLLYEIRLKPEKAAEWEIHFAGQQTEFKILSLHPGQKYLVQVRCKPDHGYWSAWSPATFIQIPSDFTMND
Experiment: SPR (Biacore 3000): Ser-PRLR (1-210) amine-coupled to a CM5 chip, analogue injected at 500 nM
Procedure: Ser-PRLR (1-210) (25 μg/ml in 10 mM sodium acetate, pH 3.0), was injected into a Biacore 3000 instrument at a flow rate of 5 μl/min and coupled to a CM5 sensor chip by amine coupling chemistry. […] Data evaluation was performed in BiaEvaluation 4.1. Regeneration was accomplished with 4.5 M MgCl₂ between runs.
The PRL receptor binding affinity of G129R-PRL was compared to that of N56D,G129R-PRL (corresponding to the deamidated form of G129R-PRL), using the Biacore-assay. […] Thus, deamidation of […] markedly reduces the receptor binding affinity

Kd: 0.027 µM
B1: G129R-PRL (ligand)
chain: LPICPGGAARCQVTLRDLFDRAVVLSHYIHNLSSEMFSEFDKRYTHGRGFITKAINSCHTSSLATPEDKEQAQQMNQKDFLSLIVSILRSWNEPLYHLVTEVRGMQEAPEAILSKAVEIEEQTKRLLERMELIVSQVHPETKENEIYPVWSGLPSLQMADEESRLSAYYNLLHCLRRDSHKIDNYLKLLKCRIIHNNNC
notes: also called G129R-hPRL

Kd: 0.313 µM
B2: N56D,G129R-PRL (ligand)
chain: B1 chain with N56D
notes: Recombinant mutant that mimics G129R-PRL deamidated at Asn-56; also called deamidated form of G129R-PRL
